Assay results published in PMC11890865.
Blank lines part the entries; values can stand above or below the substance they belong to.

Legend:
Assay in all cases: cryo-EM structure; ZorAB complex co-expressed from one operon and co-purified in LMNG; TBS (100 mM Tris, 150 mM NaCl, 1 mM EDTA, pH 8.0) plus 0.02% LMNG; Quantifoil Au grids, Titan Krios G4 at 300 kV
[1] = biological target: ZorA I from Shewanella sp. ANA-3 (Zorya type I) (Shewanella sp. strain ANA-3)
[2] = biological target: ZorA II from Sulfuricurvum kujiense DSM 16994 (Zorya type II) (Sulfuricurvum kujiense DSM 16994)
[3] = biological target: ZorB I from Shewanella sp. ANA-3 (Zorya type I) (Shewanella sp. strain ANA-3)
[4] = biological target: ZorB II from Sulfuricurvum kujiense DSM 16994 (Zorya type II) (Sulfuricurvum kujiense DSM 16994)

stoichiometry N [1]: 5
Substance: ZorA I from Shewanella sp. ANA-3 (Zorya type I) (natural protein)

stoichiometry N [2]: 5
Substance: ZorA II from Sulfuricurvum kujiense DSM 16994 (Zorya type II) (natural protein)

stoichiometry N [3]: 2
Substance: ZorB I from Shewanella sp. ANA-3 (Zorya type I) (natural protein)

stoichiometry N [4]: 2
Substance: ZorB II from Sulfuricurvum kujiense DSM 16994 (Zorya type II) (natural protein)
